From patent publication US6699869

System: (D)FPR-PNA

bovine thrombin (from Sigma)
Kcat/KM of substrate hydrolysis: thrombin: Kcat/KM=2.20×10^7 M^-1 S^-1
